Measured values taken from patent US20260373262 (published 2026).

Target: T1, EPHB6 (human, UniProt O15197)
T1 chain: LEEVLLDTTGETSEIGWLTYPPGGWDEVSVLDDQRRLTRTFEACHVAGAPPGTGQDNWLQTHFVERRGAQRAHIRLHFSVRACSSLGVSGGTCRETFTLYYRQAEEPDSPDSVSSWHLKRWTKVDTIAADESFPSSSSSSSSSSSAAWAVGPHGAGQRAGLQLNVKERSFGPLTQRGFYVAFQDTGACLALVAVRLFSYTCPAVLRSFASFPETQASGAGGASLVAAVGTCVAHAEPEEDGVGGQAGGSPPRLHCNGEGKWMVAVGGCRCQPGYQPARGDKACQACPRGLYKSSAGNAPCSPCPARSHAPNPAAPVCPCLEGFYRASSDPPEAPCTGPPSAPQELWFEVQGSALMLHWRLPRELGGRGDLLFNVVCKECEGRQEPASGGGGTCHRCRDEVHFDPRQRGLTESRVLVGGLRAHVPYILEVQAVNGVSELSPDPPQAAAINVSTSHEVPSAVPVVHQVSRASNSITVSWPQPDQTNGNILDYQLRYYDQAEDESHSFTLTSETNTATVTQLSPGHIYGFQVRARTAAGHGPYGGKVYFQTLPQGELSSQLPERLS
Test: FACS

B1: hLFTT-1 VH4/VL5 (antibody, V domains shown)
VH: QIQLVQSGSELKKPGASVKVSCKASGYTFTTYGMSWVRQAPGQGLKWMGWIYTYSGVPTYADDLTGRFVFSLDTSVSTAYLQISSLKAEDTATYYCARVRDGYYRYAMDYWGRGTLVTVSS
VL: DIQMTQSPSSLSVSVGDRVTITCKASQDINRYIAWYQQQPGKAPKLLIHFTSTLQSGVPSRFSGSGSGTDFTFTISSLQPEDIATYYCLQYDDLRTFGQGTKLEIK
EC50: > 300 µg/mL
